Values quoted from earlier work, collected in PMC12634839.

Biological target: FAM19A5 (Homo sapiens) (UniProt Q7Z5A7)
Experiment: SPR

Chain of UniProt Q7Z5A7 (Q7Z5A7 44-132): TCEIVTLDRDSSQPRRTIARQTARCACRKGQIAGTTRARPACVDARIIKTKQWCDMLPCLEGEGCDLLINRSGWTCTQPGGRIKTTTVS

Kd: 0.032 nM
Substance: LRRC4B 453-576 (from UniProt Q9NT99)
